Reference: patent US20260167959A1, “APTAZYME-BASED REGULATABLE GENE EXPRESSION SYSTEMS” (REJUVENATE BIO INC, priority 2022, published 2026)
Changes are numbered by the printed parent chain.

B1: RA312 (nucleic acid)
DNA: GCGCGTCCTGGATTCGCGGAAACGCGTACATCCAGCTGACGAGGAATACCAGCATCGTCTTGATGCCCTTGGAAGTCCGTCCCAAATAGGACGAAACGCGC
modifications: expressed or natural sequence
B2: RA329 (nucleic acid)
DNA: GCGCGTCCTGGATTCGCGGAAACGCGTACATCCAGCTGACGAGTCCCAAATAGGACGAAACAGTGATACCAGCATCGTCTTGATGCCCTTGGCAGCACTGCGC
modifications: expressed or natural sequence
B3: RA327 (nucleic acid)
DNA: GCGCGTCCTGGATTCGCGGAAACGCGTAGTGATACCAGCATCGTCTTGATGCCCTTGGCAGCACTACATCCAGCTGACGAGTCCCAAATAGGACGAAACGCGC
modifications: expressed or natural sequence
B4: RA303 (nucleic acid)
DNA: GCGCCGGAATACCAGCATCGTCTTGATGCCCTTGGAAGTCCGGTCCTGGATTCGCGGAAACGCGTACATCCAGCTGACGAGTCCCAAATAGGACGAAACGCGC
modifications: expressed or natural sequence
B5: RA328 (nucleic acid)
DNA: GCGCGTCCTGGATTCGCGGAAACGCGTACATCCAGCTGACAGTGATACCAGCATCGTCTTGATGCCCTTGGCAGCACTGAGTCCCAAATAGGACGAAACGCGC
modifications: expressed or natural sequence
B6: RA316 (nucleic acid)
DNA: GCGCGTCCTGGATGGAATACCAGCATCGTCTTGATGCCCTTGGAAGTCCTCGCGGAAACGCGTACATCCAGCTGACGAGTCCCAAATAGGACAAAACGCGC
modifications: expressed or natural sequence
B7: RA315 (nucleic acid)
DNA: GCGCGTCCTGGATTCGCGGAAACGCGTACATCCAGCTGACGAGTCCCAAATAGGACGAACGAGAATACCAGCATCGTCTTGATGCCCTTGGAAGTCTCGACGCGC
modifications: expressed or natural sequence
B8: RA307 (nucleic acid)
DNA: GCGCGTCCTGGATTCGCGGAAACGCGTACATCCAGCTGACGAGTGAGAATACCAGCATCGTCTTGATGCCCTTGGAAGTCTCCCCAAATAGGACGAAACGCGC
modifications: expressed or natural sequence
B9: RA320 (nucleic acid)
DNA: B8 DNA with G45A, A46G, G47T, A48G, A76C, T79C, C80A, T81C, C82T
modifications: expressed or natural sequence
B10: RA321 (nucleic acid)
DNA: GCGCGTCCTGGATTCGCGGAAACGCGTACATCCAGCTAGTGATACCAGCATCGTCTTGATGCCCTTGGCAGCACTGACGAGTCCCAAATAGGACGAAACGCGC
modifications: expressed or natural sequence
B11: RA323 (nucleic acid)
DNA: GCGCGTCCTGGATTCGCGCGGAATACCAGCATCGTCTTGATGCCCTTGGAAGTCCGGAAACGCGTACATCCAGCTGACGAGTCCCAAATAGGACGAAACGCGC
modifications: expressed or natural sequence
B12: RA322 (nucleic acid)
DNA: GCGCGTCCTGGATTCGCGGAGAATACCAGCATCGTCTTGATGCCCTTGGAAGTCTAAACGCGTACATCCAGCTGACGAGTCCCAAATAGGACGAAACGCGC
modifications: expressed or natural sequence
B13: RA313 (nucleic acid)
DNA: GCGCGTCCTGGATTCGCGGAAACGCGTACATCCAGCTGACGAGTCCCAACGGAATACCAGCATCGTCTTGATGCCCTTGGAAGTCCGATAGGACGAAACGCGC
modifications: expressed or natural sequence
B14: RA305 (nucleic acid)
DNA: GCGCGTCCTGGATTCGCGGAAACGCGTACATCAGTGATACCAGCATCGTCTTGATGCCCTTGGCAGCACTCAGCTGACGAGTCCCAAATAGGACGAAACGCGC
modifications: expressed or natural sequence
B15: RA314 (nucleic acid)
DNA: GCGCGTCCTGGATTCGCGGAAACGCGTACATCCAGCTGACGAGTCCCAAATAGGGAATACCAGCATCGTCTTGATGCCCTTGGAAGTCCGACGAAACGCGC
modifications: expressed or natural sequence
B16: RA317 (nucleic acid)
DNA: GCGCGTCCTGGATTCGCGGAAACGCGTACATCCAGCTGACGAGTCCCAAATAGCCGGAATACCAGCATCGTCTTGATGCCCTTGGAAGTCCGGGACGAAACGCGC
modifications: expressed or natural sequence
B17: RA311 (nucleic acid)
DNA: GCGCGTCCTGGATTCGCGGAAACGCGTCGAGAATACCAGCATCGTCTTGATGCCCTTGGAAGTCTCGACATCCAGCTGACGAGTCCCAAATAGGACGAAACGCGC
modifications: expressed or natural sequence
B18: RA306 (nucleic acid)
DNA: GCGCGGGAATACCAGCATCGTCTTGATGCCCTTGGAAGTCCTCCTGGATTCGCGGAAACGCGTACATCCAGCTGACGAGTCCCAAATAGGACAAAACGCGC
modifications: expressed or natural sequence
B19: RA309 (nucleic acid)
DNA: B18 DNA with G6A, C41T, A93G
modifications: expressed or natural sequence
B20: RA325 (nucleic acid)
DNA: GCGCGTCCTGGATTCGCGGAAACGCGTACATCCAGCTGACGAGTCCCAAATAGGAGGAATACCAGCATCGTCTTGATGCCCTTGGAAGTCCCAAAACGCGC
modifications: expressed or natural sequence
B21: RA308 (nucleic acid)
DNA: GCGCGTCCTGGATTCGCGGAAACGCGTACATCCAGCAGTGATACCAGCATCGTCTTGATGCCCTTGGCAGCACTTGACGAGTCCCAAATAGGACGAAACGCGC
modifications: expressed or natural sequence
B22: RA310 (nucleic acid)
DNA: GCGCGTCCTGGATTCGCGGAAACGCGTACATCCAGCTGACGAGTCCCAAATAGAATACCAGCATCGTCTTGATGCCCTTGGAAGTCTAGGACGAAACGCGC
modifications: expressed or natural sequence
B23: RA326 (nucleic acid)
DNA: GCTGTCACCGGAATACCAGCATCGTCTTGATGCCCTTGGAAGTCCGGTCTGATGAGTCCCTTGAGGACGAAACAGC
modifications: expressed or natural sequence
B24: RA304 (nucleic acid)
DNA: GCGCGAGAATACCAGCATCGTCTTGATGCCCTTGGAAGTCTCGCGTCCTGGATTCGCGGAAACGCGTACATCCAGCTGACGAGTCCCAAATAGGACGAAACGCGC
modifications: expressed or natural sequence
B25: RA318 (nucleic acid)
DNA: GCGGAATACCAGCATCGTCTTGATGCCCTTGGAAGTCCGCGCGTCCTGGATTCGCGGAAACGCGTACATCCAGCTGACGAGTCCCAAATAGGACGAAACGCGC
modifications: expressed or natural sequence
B26: RA319 (nucleic acid)
DNA: GCGCGTCCTGGATTCGCGGAAACGCGTACAGAGAATACCAGCATCGTCTTGATGCCCTTGGAAGTCTCTCCAGCTGACGAGTCCCAAATAGGACGAAACGCGC
modifications: expressed or natural sequence
B27: RA324 (nucleic acid)
DNA: GCGCGTCCTGGATTCGCGGAAACCGGAATACCAGCATCGTCTTGATGCCCTTGGAAGTCCGGCGTACATCCAGCTGACGAGTCCCAAATAGGACGAAACGCGC
modifications: expressed or natural sequence
B28: RA030 (nucleic acid)
DNA: B2 DNA with A62G, G63A, T64G, G65A, C93A, C96T, A97C, C98T, T99C
modifications: expressed or natural sequence
B29: RA031 (nucleic acid)
DNA: GCGCGTCCGAGAATACCAGCATCGTCTTGATGCCCTTGGAAGTCTCTGGATTCGCGGAAACGCGTACATCCAGCTGACGAGTCCCAAATAGGACGAAACGCGC
modifications: expressed or natural sequence

Test system: Renilla luciferase RNA
Assay: Barcoded aptazyme variant library screen: un-cleaved Renilla luciferase RNA by barcode read counts, HEK293-T cells
Assay type: cell-based
Conditions: un-cleaved Renilla luciferase RNA by barcode read counts; with 1 mM theophylline (ON) over without theophylline (OFF); HEK293-T cells; triplicate
Summary of the method: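 Aptazyme variants (seven theophylline aptamers inserted after each T3H48 ribozyme nucleotide, 9-nt barcoded) cloned into the 3′ UTR of Renilla luciferase in psiCHECK-2; cells cultured ± theophylline, in triplicate. RNA and DNA barcodes amplified and sequenced; normalized read counts gave un-cleaved RNA fraction and ON/OFF fold-change.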

Molecule	Fold change in RNA expression between the ON state and the OFF state
B1	1.0
B2	0.9
B3	0.9
B4	1.0
B5	0.9
B6	0.9
B7	1.0
B8	1.0
B9	0.9
B10	0.9
B11	0.9
B12	0.9
B13	1.0
B14	1.0
B15	1.0
B16	0.9
B17	1.0
B18	1.0
B19	1.0
B20	0.9
B21	1.0
B22	1.0
B23	0.9
B24	1.0
B25	0.9
B26	0.9
B27	0.9

Same assay, conditions: un-cleaved Renilla luciferase RNA, HEK293-T cells cultured with 1 mM theophylline (ON) over without theophylline (OFF); barcode read counts, triplicate

Molecule	Fold change in RNA expression between the ON state and the OFF state
B28	2.3 fold
B29	2.3 fold
